Values quoted from earlier work in publication PMC6723671.

Target: CD150 (SLAM) ECD (Homo sapiens) (UniProt Q13291)

Kd: > 200 µM
Substance: CD150 (SLAM) ECD (from UniProt Q13291)
